Measured values: publication PMC9416547 (Nucleic Acid Therapeutics, 2022)

Experiments:
[1] = biological target: T1, MBP-tagged NAT10 CTD (541-1025 AA) (UniProt Q9H0A0 541-1025); assay: pull-down
T1 sequence (looked up): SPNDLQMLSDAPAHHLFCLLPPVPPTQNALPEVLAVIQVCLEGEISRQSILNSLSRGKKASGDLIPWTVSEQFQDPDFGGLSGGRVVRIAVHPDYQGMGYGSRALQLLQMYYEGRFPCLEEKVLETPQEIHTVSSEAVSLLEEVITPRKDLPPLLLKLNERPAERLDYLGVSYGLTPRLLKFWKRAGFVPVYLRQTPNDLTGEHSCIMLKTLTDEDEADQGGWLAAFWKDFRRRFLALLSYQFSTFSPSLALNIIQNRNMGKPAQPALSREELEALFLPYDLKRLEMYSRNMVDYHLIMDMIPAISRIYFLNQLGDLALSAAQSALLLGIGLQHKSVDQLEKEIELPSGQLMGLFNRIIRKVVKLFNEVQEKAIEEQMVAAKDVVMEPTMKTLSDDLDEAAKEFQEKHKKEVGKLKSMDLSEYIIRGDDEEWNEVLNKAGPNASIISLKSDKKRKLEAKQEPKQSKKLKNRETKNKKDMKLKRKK

[2] = biological target: T2, MBP-tagged full-length NAT10 (UniProt Q9H0A0 1-1025); assay: pull-down
T2 sequence (looked up): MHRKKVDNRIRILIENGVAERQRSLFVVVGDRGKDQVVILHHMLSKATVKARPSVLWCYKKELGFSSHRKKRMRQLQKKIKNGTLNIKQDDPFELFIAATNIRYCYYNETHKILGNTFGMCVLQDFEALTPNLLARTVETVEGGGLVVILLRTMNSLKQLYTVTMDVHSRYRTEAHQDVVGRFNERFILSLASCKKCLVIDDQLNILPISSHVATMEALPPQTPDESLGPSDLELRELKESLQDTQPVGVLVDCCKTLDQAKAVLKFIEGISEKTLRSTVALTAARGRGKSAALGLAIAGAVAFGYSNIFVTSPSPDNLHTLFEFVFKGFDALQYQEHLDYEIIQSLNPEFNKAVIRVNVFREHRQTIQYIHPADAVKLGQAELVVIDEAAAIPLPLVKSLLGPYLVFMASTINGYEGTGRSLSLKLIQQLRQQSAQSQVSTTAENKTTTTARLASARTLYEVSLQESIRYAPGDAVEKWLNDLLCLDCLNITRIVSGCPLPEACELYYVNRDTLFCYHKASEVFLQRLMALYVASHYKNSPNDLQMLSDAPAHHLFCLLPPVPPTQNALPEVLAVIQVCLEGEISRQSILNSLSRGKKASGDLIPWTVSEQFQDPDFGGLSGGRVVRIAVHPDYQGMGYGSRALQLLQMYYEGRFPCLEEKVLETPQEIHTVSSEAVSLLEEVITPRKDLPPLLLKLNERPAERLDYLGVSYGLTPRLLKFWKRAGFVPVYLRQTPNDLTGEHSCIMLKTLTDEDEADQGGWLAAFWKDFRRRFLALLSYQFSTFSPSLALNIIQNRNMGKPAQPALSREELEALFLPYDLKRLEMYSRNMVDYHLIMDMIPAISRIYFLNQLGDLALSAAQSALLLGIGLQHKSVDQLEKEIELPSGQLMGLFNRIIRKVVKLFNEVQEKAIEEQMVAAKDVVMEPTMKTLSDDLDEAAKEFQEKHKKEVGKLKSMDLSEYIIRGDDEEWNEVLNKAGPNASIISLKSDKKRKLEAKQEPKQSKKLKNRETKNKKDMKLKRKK

binding result [1]: binds
binding result [2]: binds
B1: GST-fused full-length RNase H1 (enzyme, human, UniProt O60930 1-286, looked up)
chain: MSWLLFLAHRVALAALPCRRGSRGFGMFYAVRRGRKTGVFLTWNECRAQVDRFPAARFKKFATEDEAWAFVRKSASPEVSEGHENQHGQESEAKASKRLREPLDGDGHESAEPYAKHMKPSVEPAPPVSRDTFSYMGDFVVVYTDGCCSSNGRRRPRAGIGVYWGPGHPLNVGIRLPGRQTNQRAEIHAACKAIEQAKTQNINKLVLYTDSMFTINGITNWVQGWKKNGWKTSAGKEVINKEDFVALERLTQGMDIQWMHVPGHSGFIGNEEADRLAREGAKQSED
